Test results published in publication PMC7994586, “The box C/D snoRNP assembly factor Bcd1 interacts with the histone chaperone Rtt106 and controls its transcription dependent activity” (Nature Communications, 2021).
Where no end group is shown, it is not given here.

T1: Rtt106p_(65-301) bound to Bcd1p_(120-303) (S. cerevisiae, UniProt P40161 65-301; P38772 120-303)
T1 chain 1: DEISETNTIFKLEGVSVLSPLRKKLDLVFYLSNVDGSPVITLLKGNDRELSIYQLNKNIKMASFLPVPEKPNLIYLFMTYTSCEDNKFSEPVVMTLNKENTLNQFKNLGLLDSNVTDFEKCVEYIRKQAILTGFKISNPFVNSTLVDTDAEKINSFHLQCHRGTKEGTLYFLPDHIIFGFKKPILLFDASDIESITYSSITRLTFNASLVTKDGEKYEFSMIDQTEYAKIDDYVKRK
T1 chain 2: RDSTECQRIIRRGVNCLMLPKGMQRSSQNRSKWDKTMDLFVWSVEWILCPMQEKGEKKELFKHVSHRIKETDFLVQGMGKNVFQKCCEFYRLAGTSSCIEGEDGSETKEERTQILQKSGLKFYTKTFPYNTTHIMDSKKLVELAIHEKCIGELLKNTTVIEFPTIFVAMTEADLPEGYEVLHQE

T2: Rtt106p_(65-301) (S. cerevisiae, UniProt P40161 65-301)
T2 chain: T1 chain 1

T3: Rtt106p_(65-301) (S. cerevisiae, UniProt P40161 65-301)
T3 construct: Rtt106p, yeast, residues 65-301 (tandem PH domains); also called Rtt106_(65-301); source: E. coli BL21 pRARE2, purified
T3 sequence (looked up): T1 chain 1

T4: Rtt106p_(65-301) bound to Bcd1p_(120-303) (S. cerevisiae, UniProt P40161 65-301; P38772 120-303)
T4 construct: Rtt106p, yeast, residues 65-301; as the chain of m19; as the chain of m18; Formed before titration with the H3K56ac peptide; source: E. coli BL21 pRARE2, purified proteins, mixed; not shown: His6, N-terminal, cleaved; copies: 1 + 1
T4 sequence (looked up) 1: T1 chain 1
T4 sequence (looked up) 2: T1 chain 2

T5: recombinant fragment Rtt106p-M (Rtt106p_(65-320)), purified (S. cerevisiae, UniProt P40161 65-320)
T5 chain: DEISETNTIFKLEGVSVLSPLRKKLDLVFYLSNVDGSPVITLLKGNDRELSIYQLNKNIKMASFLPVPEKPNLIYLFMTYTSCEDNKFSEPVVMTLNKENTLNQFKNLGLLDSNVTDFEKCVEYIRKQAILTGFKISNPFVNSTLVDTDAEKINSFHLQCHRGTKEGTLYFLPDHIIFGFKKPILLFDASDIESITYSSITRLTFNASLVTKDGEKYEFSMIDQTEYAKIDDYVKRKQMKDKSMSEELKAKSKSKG

B1: H3K56ac (IRRFQKacSTELL) peptide (peptide)
peptide: IRRFQK(Ac)STELL
notes: histone H3 stretch around lysine 56, acetylated at K56; also called acetylated peptide; source: synthetic peptide, bought: Proteogenix
B2: Bcd1p120-366 (protein)
chain: RDSTECQRIIRRGVNCLMLPKGMQRSSQNRSKWDKTMDLFVWSVEWILCPMQEKGEKKELFKHVSHRIKETDFLVQGMGKNVFQKCCEFYRLAGTSSCIEGEDGSETKEERTQILQKSGLKFYTKTFPYNTTHIMDSKKLVELAIHEKCIGELLKNTTVIEFPTIFVAMTEADLPEGYEVLHQEPRPLEHTSTLNKFIDNAREEEDAEEDSQPTEEPVQKETQDASDSDSDSDDDYNPGLSMDFLTA
B3: recombinant fragment Rtt106p-M (Rtt106p_(65-320)), purified (domain or fragment, S. cerevisiae, UniProt P40161 65-320, looked up)
chain: T5 chain
notes: Rtt106p, yeast, residues 65-320 (tandem PH1 and PH2 domains); Native MS mass 29,695 Da; also called 65-320 (M) domain of Rtt106p
B4: recombinant Bcd1pFL, purified (natural protein, S. cerevisiae, UniProt P38772 1-366, looked up)
chain: MAVLCGVCGIKEFKYKCPRCLVQTCSLECSKKHKTRDNCSGQTHDPKEYISSEALKQADDDKHERNAYVQRDYNYLTQLKRMVHVQKMDARMKNKRVLGPVGGHNSNFKKRRYDIDEDDRDSTECQRIIRRGVNCLMLPKGMQRSSQNRSKWDKTMDLFVWSVEWILCPMQEKGEKKELFKHVSHRIKETDFLVQGMGKNVFQKCCEFYRLAGTSSCIEGEDGSETKEERTQILQKSGLKFYTKTFPYNTTHIMDSKKLVELAIHEKCIGELLKNTTVIEFPTIFVAMTEADLPEGYEVLHQEPRPLEHTSTLNKFIDNAREEEDAEEDSQPTEEPVQKETQDASDSDSDSDDDYNPGLSMDFLTA
notes: Bcd1p, S. cerevisiae, full length; Detected by native MS with two zinc ions (42,752 Da); also called Bcd1FL; full-length Bcd1p
B5: Bcd1p_(120-303) (domain or fragment, S. cerevisiae, UniProt P38772 120-303, looked up)
chain: T1 chain 2
notes: Tag removal is told for the NMR preparation; the preparation for ITC is not described separately; source: E. coli BL21 pRARE2, purified (TALON, PreScission cleavage, gel filtration); not shown: His6, N-terminal, cleaved

Legend:
[1] = molecular target: T1, Rtt106p_(65-301) bound to …; assay: ITC
[2] = molecular target: T2, Rtt106p_(65-301); assay: ITC
[3] = molecular target: T3, Rtt106p_(65-301); assay: ITC; H3K56ac peptide (2 mM) as the titrant into 200 μM Rtt106p_(65-301) with or without Bcd1p_(120-303); conditions: both partners purified
[4] = molecular target: T4, Rtt106p_(65-301) bound to …; assay: as above; conditions: both partners purified
[5] = molecular target: T5, recombinant fragment Rtt106p-M …; assay: ITC
[6] = molecular target: B4; assay: ITC; 293 K, 10 mM NaPi pH 7.5, 150 mM NaCl, 0.5 mM TCEP; 40 μM titrated, 400 μM titrant; conditions: both partners purified
[7] = molecular target: B3; assay: native MS; individual partners and co-purified complex in 150 mM ammonium acetate pH 7.5, nanoESI, nondenaturing conditions; conditions: both partners purified
[8] = molecular target: T3, Rtt106p_(65-301); assay: ITC; 293 K, 10 mM NaPi pH 7.5, 150 mM NaCl, 0.5 mM TCEP; 40 μM titrated, 400 μM titrant; conditions: both partners purified

Binder: B1
Kd [1]: 649000 nM | Kd [2]: 714000 nM | binding result [3]: binds | binding result [4]: binds

Binder: B2
Kd [5]: 1740 nM

Binder: B3
Kd [6]: 1170 ± 170 nM

Binder: B4
stoichiometry N [7]: 1

Binder: B5
Kd [5]: 1160 nM | Kd [2]: 1630 nM | Kd [8]: 940 ± 60 nM
